Experimental findings from the supplement of paper PMC10567573 are described below.

B1: CDC14A (parent)
chain: LNLAMVYRYCCKLNKKLKSYSLSR
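Further: lentivirally expressed fusions sorted by FACS into six bins by GFP to DsRed ratio, PSI derived from sequencing read proportions per bin multiplied by bin number.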

Variants of B1 are the subject of the data set. Description: protein stability index of a GFP-peptide fusion (GPS, HEK-293T) (PSI 1-6); higher = more stable. The note with it: c terminus: a fixed tail appended.
Turning to LNLAMVYRYCIKLNKKLKSYSLSR, the protein stability index is 3.23.
Consider LNLAMVYRYCNKLNKKLKSYSLSR, for which the protein stability index was determined as 3.24.
With LNLAMVYRYCKKLNKKLKSYSLSR, the protein stability index was 3.
To LNLAMVYRYCWKLNKKLKSYSLSR belongs 2.15; to LNLAMVYRYCGKLNKKLKSYSLSR, 4.89.
The result for LNLAMVYRYCPKLNKKLKSYSLSR reads 1.97; that for LNLAMVYRYCMKLNKKLKSYSLSR, 2.74; that for LNLAMVYRYCAKLNKKLKSYSLSR, 2.73.
Regarding LNLAMVYRYCHKLNKKLKSYSLSR, the protein stability index was found to be 3.15.
The result for LNLAMVYRYCRKLNKKLKSYSLSR reads 2.64; that for LNLAMVYRYCYKLNKKLKSYSLSR, 2.63; that for LNLAMVYRYCVKLNKKLKSYSLSR, 2.45.
As to LNLAMVYRYCLKLNKKLKSYSLSR, the protein stability index was determined as 2.64.
For the variant LNLAMVYRYCSKLNKKLKSYSLSR, the protein stability index amounted to 3.77.
As for LNLAMVYRYCDKLNKKLKSYSLSR, the protein stability index amounted to 2.85.
Turning to LNLAMVYRYCEKLNKKLKSYSLSR, the protein stability index is 1.62.
The result for LNLAMVHRYCCKLNKKLKSYSLSR reads 2.68.
To LNLAMVMRYCCKLNKKLKSYSLSR belongs 1.91.
To LNLAMVIRYCCKLNKKLKSYSLSR belongs 3.1.
In the case of LNLAMVKRYCCKLNKKLKSYSLSR, the protein stability index came out at 2.13.
The result for LNLAMVTRYCCKLNKKLKSYSLSR reads 3.96; that for LNLAMVPRYCCKLNKKLKSYSLSR, 2.23; that for LNLAMVFRYCCKLNKKLKSYSLSR, 3.48.
On to LNLAMVVRYCCKLNKKLKSYSLSR, for which the protein stability index came to 3.72.
The result for LNLAMVGRYCCKLNKKLKSYSLSR reads 2.43.
Regarding LNLAMVQRYCCKLNKKLKSYSLSR, the protein stability index is 2.71.
Regarding LNLAMVSRYCCKLNKKLKSYSLSR, the protein stability index amounted to 3.42.
For LNLAMVLRYCCKLNKKLKSYSLSR, the protein stability index turned out to be 3.34.
Consider LNLAMVCRYCCKLNKKLKSYSLSR, for which the protein stability index was 2.73.
For LNLAMVNRYCCKLNKKLKSYSLSR, the protein stability index is 2.46.
Regarding LNLAMVERYCCKLNKKLKSYSLSR, the protein stability index came out at 2.16.
Regarding LNLAMVARYCCKLNKKLKSYSLSR, the protein stability index was determined as 1.85.
For LNLAMVYRMCCKLNKKLKSYSLSR, the protein stability index turned out to be 1.81.
The result for LNLAMVYRVCCKLNKKLKSYSLSR reads 2.44.
As to LNLAMVYRPCCKLNKKLKSYSLSR, the protein stability index amounted to 1.41.
As to LNLAMVYRHCCKLNKKLKSYSLSR, the protein stability index was determined as 2.48.
The result for LNLAMVYRECCKLNKKLKSYSLSR reads 2.45; that for LNLAMVYRQCCKLNKKLKSYSLSR, 3.9; that for LNLAMVYRDCCKLNKKLKSYSLSR, 2.91.
LNLAMVYRWCCKLNKKLKSYSLSR: the protein stability index amounted to 2.91.
With LNLAMVYRGCCKLNKKLKSYSLSR, the protein stability index was 3.25.
Take LNLAMVYRTCCKLNKKLKSYSLSR: the protein stability index was found to be 2.54.
Take LNLAMVYRNCCKLNKKLKSYSLSR: the protein stability index amounted to 2.03.
To LNLAMVYRICCKLNKKLKSYSLSR belongs 2.02.
The result for LNLAMVYRSCCKLNKKLKSYSLSR reads 2.19.
The result for LNLAMVYRKCCKLNKKLKSYSLSR reads 3.54; that for LNLAMVYRACCKLNKKLKSYSLSR, 2.3; that for LNLAMVYRCCCKLNKKLKSYSLSR, 2.59.
LNLAMVYRRCCKLNKKLKSYSLSR: the protein stability index stood at 2.03.
Turning to LNLDMVYRYCCKLNKKLKSYSLSR, the protein stability index worked out at 4.12.
Consider LNLWMVYRYCCKLNKKLKSYSLSR, for which the protein stability index was 1.8.
To LNLPMVYRYCCKLNKKLKSYSLSR belongs 3.19; to LNLVMVYRYCCKLNKKLKSYSLSR, 2.74; to LNLQMVYRYCCKLNKKLKSYSLSR, 4.07.
The result for LNLTMVYRYCCKLNKKLKSYSLSR reads 2.15; that for LNLMMVYRYCCKLNKKLKSYSLSR, 3.12; that for LNLGMVYRYCCKLNKKLKSYSLSR, 3.33.
LNLSMVYRYCCKLNKKLKSYSLSR: the protein stability index was 3.5.
The result for LNLFMVYRYCCKLNKKLKSYSLSR reads 3.74; that for LNLYMVYRYCCKLNKKLKSYSLSR, 2.91.
As to LNLEMVYRYCCKLNKKLKSYSLSR, the protein stability index is 2.43.
Regarding LNLLMVYRYCCKLNKKLKSYSLSR, the protein stability index was determined as 2.68.
The result for LNLKMVYRYCCKLNKKLKSYSLSR reads 1.59.
The result for LNLIMVYRYCCKLNKKLKSYSLSR reads 2.37; that for LNLRMVYRYCCKLNKKLKSYSLSR, 3.08; that for LNLNMVYRYCCKLNKKLKSYSLSR, 3.18.
Turning to LNLHMVYRYCCKLNKKLKSYSLSR, the protein stability index was found to be 3.55.
To LNLCMVYRYCCKLNKKLKSYSLSR belongs 3.81; to LNLAMVYRYCCHLNKKLKSYSLSR, 1.73.
The result for LNLAMVYRYCCFLNKKLKSYSLSR reads 2.18.
LNLAMVYRYCCRLNKKLKSYSLSR: the protein stability index was found to be 2.13.
Take LNLAMVYRYCCELNKKLKSYSLSR: the protein stability index amounted to 1.5.
The result for LNLAMVYRYCCNLNKKLKSYSLSR reads 2.15; that for LNLAMVYRYCCVLNKKLKSYSLSR, 2.59; that for LNLAMVYRYCCDLNKKLKSYSLSR, 1.81.
The result for LNLAMVYRYCCTLNKKLKSYSLSR reads 2.55.
As for LNLAMVYRYCCYLNKKLKSYSLSR, the protein stability index was determined as 2.51.
As for LNLAMVYRYCCPLNKKLKSYSLSR, the protein stability index turned out to be 2.87.
In the case of LNLAMVYRYCCLLNKKLKSYSLSR, the protein stability index came out at 2.5.
Turning to LNLAMVYRYCCSLNKKLKSYSLSR, the protein stability index worked out at 2.58.
To LNLAMVYRYCCALNKKLKSYSLSR belongs 2.1; to LNLAMVYRYCCGLNKKLKSYSLSR, 1.89; to LNLAMVYRYCCQLNKKLKSYSLSR, 3.04.
To LNLAMVYRYCCMLNKKLKSYSLSR belongs 2.19.
Regarding LNLAMVYRYCCILNKKLKSYSLSR, the protein stability index amounted to 3.53.
The result for LNLAMVYRYCCWLNKKLKSYSLSR reads 2.14.
For LNLAMVYRYCCKLCKKLKSYSLSR, the protein stability index stood at 3.38.
The result for LNLAMVYRYCCKLAKKLKSYSLSR reads 3.35; that for LNLAMVYRYCCKLGKKLKSYSLSR, 3.52.
For the variant LNLAMVYRYCCKLEKKLKSYSLSR, the protein stability index was determined as 4.6.
The result for LNLAMVYRYCCKLDKKLKSYSLSR reads 2.8; that for LNLAMVYRYCCKLFKKLKSYSLSR, 2.31.
In the case of LNPAMVYRYCCKLNKKLKSYSLSR, the protein stability index came out at 3.05.
Turning to LNQAMVYRYCCKLNKKLKSYSLSR, the protein stability index was 2.61.
